Biological target: T1, 6His-FIP5 (human, UniProt Q9BXF6 1-653)
T1 sequence (looked up): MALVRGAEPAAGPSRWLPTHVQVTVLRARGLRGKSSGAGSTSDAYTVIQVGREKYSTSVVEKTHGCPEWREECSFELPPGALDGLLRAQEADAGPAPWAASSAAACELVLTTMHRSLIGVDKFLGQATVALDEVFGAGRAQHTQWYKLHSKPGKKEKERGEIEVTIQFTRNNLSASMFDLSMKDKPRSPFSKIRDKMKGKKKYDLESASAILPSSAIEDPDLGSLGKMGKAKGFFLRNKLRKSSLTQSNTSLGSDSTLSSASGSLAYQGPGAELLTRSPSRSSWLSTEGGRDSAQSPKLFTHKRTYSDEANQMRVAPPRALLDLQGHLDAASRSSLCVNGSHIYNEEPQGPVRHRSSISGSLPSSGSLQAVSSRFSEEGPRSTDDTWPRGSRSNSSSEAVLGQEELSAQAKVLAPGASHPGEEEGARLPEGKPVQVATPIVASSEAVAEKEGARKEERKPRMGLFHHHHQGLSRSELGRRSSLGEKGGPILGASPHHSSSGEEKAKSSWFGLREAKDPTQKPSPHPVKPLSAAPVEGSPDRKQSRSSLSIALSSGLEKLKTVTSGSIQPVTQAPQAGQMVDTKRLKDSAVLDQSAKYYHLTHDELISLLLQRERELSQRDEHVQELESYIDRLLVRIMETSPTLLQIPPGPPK
Test: ITC

B1: GST-SNX18 (natural protein, human, UniProt Q96RF0 1-628, looked up)
chain: MALRARALYDFRSENPGEISLREHEVLSLCSEQDIEGWLEGVNSRGDRGLFPASYVQVIRAPEPGPAGDGGPGAPARYANVPPGGFEPLPVAPPASFKPPPDAFQALLQPQQAPPPSTFQPPGAGFPYGGGALQPSPQQLYGGYQASQGSDDDWDDEWDDSSTVADEPGALGSGAYPDLDGSSSAGVGAAGRYRLSTRSDLSLGSRGGSVPPQHHPSGPKSSATVSRNLNRFSTFVKSGGEAFVLGEASGFVKDGDKLCVVLGPYGPEWQENPYPFQCTIDDPTKQTKFKGMKSYISYKLVPTHTQVPVHRRYKHFDWLYARLAEKFPVISVPHLPEKQATGRFEEDFISKRRKGLIWWMNHMASHPVLAQCDVFQHFLTCPSSTDEKAWKQGKRKAEKDEMVGANFFLTLSTPPAAALDLQEVESKIDGFKCFTKKMDDSALQLNHTANEFARKQVTGFKKEYQKVGQSFRGLSQAFELDQQAFSVGLNQAIAFTGDAYDAIGELFAEQPRQDLDPVMDLLALYQGHLANFPDIIHVQKGKAWPLEQVIWSVLCRLKGATLTAVPLWVSESYSTGEEASRDVDAWVFSLECKLDCSTGSFLLEYLALGNEYSFSKVQRVPLMTVLSF
Kd: 1.56 µM
